Experimental data taken from US5760185.
Like-named read-outs stand apart in the source and are kept apart here.

Legend:
[1] = biological target: feline herpes virus-1 (FHV-1) viral particle, K1 strain
[2] = biological target: feline herpes virus-1 (FHV-1) viral particle, K1 strain; remark: listed apart in the source

B1: anti-FHV-1 chimeric antibody FH2 (antibody, V domains shown)
VH: QVTLKESGPGILQPSQTLSLTCSFSGFSLSTSGMGAGWIRQPSGKGLEWLAHIWWDDVKRYNPALKSRLTISKDTSSSQVFLKIASVDTADTATYFCVRSQIYFDYDGAWFPFWGQGTLVTVSA
VL: DIVLTQSPATLSVTPGDSVSLSCRASQSISNNLHWYQQKSHESPRLLIKYASQSISGIPSRFSGSGSGTDFTLSINSVETEDFGMYFCQQSNSWPHTFGAGTKLELKS
For B1, the Minimum Effective Concentration for Neutralization [1] was 1.95 µg/mL.

B2: mouse monoclonal antibody JH2 (antibody, V domains shown)
VH: B1 VH
VL: DIVLTQSPATLSVTPGDSVSLSCRASQSISNNLHWYQQKSHESPRLLIKYASQSISGIPSRFSGSGSGTDFTLSINSVETEDFGMYFCQQSNSWPHTFGAGTKLELK
Binder B2 has a Minimum Effective Concentration for Neutralization [2] of 0.39 µg/mL and a Minimum Effective Concentration for Neutralization [1] of 1.25 µg/mL.
